The values below come from PMC4256133 (Proteins, 2014).

This data set concerns the molecule itself. The data set can be described thus: crystal structure.

By stoichiometry N is commonly meant a count of units in the complex or per binding partner.

B1: Octaprenyl pyrophosphate synthase from Escherichia coli (enzyme, E. coli)
chain: MNLEKINELTAQDMAGVNAAILEQLNSDVQLINQLGYYIVSGGGKRIRPMIAVLAARAVGYEGNAHVTIAALIEFIHTATLLHDDVVDESDMRRGKATANAAFGNAASVLVGDFIYTRAFQMMTSLGSLKVLEVMSEAVNVIAEGEVLQLMNVNDPDITEENYMRVIYSKTARLFEAAAQCSGILAGCTPEEEKGLQDYGRYLGTAFQLIDDLLDYNADGEQLGKNVGDDLNEGKPTLPLLHAMHHGTPEQAQMIRTAIEQGNGRHLLEPVLEAMNACGSLEWTRQRAEEEADKAIAALQVLPDTPWREALIGLAHIAVQRDR
As to B1, the “stoichiometry N” value was found to be 2.
